± gives the uncertainty stated by the source.

The data set can be described thus: amyloid nucleation score (Sup35N fusion, yeast selection) (log enrichment); library NNK2; higher = more nucleation; inactive = no reads after selection. Summed up:
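The nucleation score equals the log enrichment of output over input reads from DiMSum, centred on the mode score of non-aggregating sequences. It was computed only for sequences with 100 or more input reads. The reads came from Illumina sequencing of plasmid inserts from psi-negative yeast expressing Sup35N fused to peptides of 20 random codons, induced with 100 μM copper sulfate for 24 hours and grown 7 days at 30°C without adenine and uracil.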
LDILIAQALEVFSDQYCNY came in with an amyloid nucleation score of -0.992 ± 0.42.

For NRGSAPYYVTICYCNLC, the amyloid nucleation score amounted to 8.578 ± 0.035.

EMLKHCYTSTQSSYSFIYWR: the amyloid nucleation score was -0.27 ± 0.65.

As for SCCLLPKYELRIIYCASRRK, the amyloid nucleation score was -0.324 ± 1.1.

LYYFGTGAICMLLNWICPGC: the amyloid nucleation score entry is “inactive”.

IVQRLPVFKFLMYELCLLNG: the amyloid nucleation score was -0.894 ± 0.38.

MLTFSTNDFVRFVMHVAQWD registered an amyloid nucleation score of 2.1 ± 0.22.

The substance GMNWGWRFVNIFY displayed an amyloid nucleation score of 5.848 ± 0.031.

Consider SSDATCGVDGHFRLLITHCG, for which the amyloid nucleation score was 5.9 ± 0.075.

Turning to PSLFTVFNVRLFQE, the amyloid nucleation score was 4.12 ± 0.072.

Substance IALANVGLED came in with an amyloid nucleation score of -0.023 ± 0.33.

Substance ATYFWMQSVP returned an amyloid nucleation score of 0.903 ± 0.74.

Regarding IGGGTLYWGVDWVMY, the amyloid nucleation score was 2.96 ± 0.12.

As to ARFSVILNSIYRFSYLCRRL, the amyloid nucleation score result was “inactive”.

Take YGKYSFSWEIRCLCEMTTKN: the amyloid nucleation score was -0.608 ± 0.78.

On to GFVINFYLNGVALQRVILAF, for which the amyloid nucleation score result is “inactive”.

For LGCHLVGLVNRGKNGGRISL, the amyloid nucleation score worked out at 0.315 ± 0.74.

HIKLYSDYTCKLMPSLTWQR returned an amyloid nucleation score of 4.8 ± 0.08.

The substance VTIEFATHLWGVMY yielded an amyloid nucleation score of 4.78 ± 0.072.

In turn, RGFCN displayed an amyloid nucleation score of -1 ± 1.1.

CVNVTLASFQVLNNPLHRSF showed an amyloid nucleation score of 4.896 ± 0.041.

KIYERPAITDFGSQVD came in with an amyloid nucleation score of -0.505 ± 0.21.

MYRCQSSVFIFGSYSPILCH had an amyloid nucleation score of -0.303 ± 0.63.

For KCWYRH, the amyloid nucleation score came out at 1.39 ± 0.1.

Substance RLRQEYGLLLRRGKSVP yielded an amyloid nucleation score of 0.252 ± 0.35.

As for FSNSTIFDVHAQVLGDFERP, the amyloid nucleation score is -0.254 ± 1.

In turn, IKSVFMCYWGLDAVGVTAER gave an amyloid nucleation score of 8.785 ± 0.047.

Regarding YLDRGYRGGFPFGKNVWTDG, the amyloid nucleation score was -1.36 ± 0.78.

In the case of NTRASSKGIDMGYCQYH, the amyloid nucleation score amounted to 0.066 ± 0.49.

Take TRWARYALNVIEHWQLSWVK: the amyloid nucleation score is 0.145 ± 0.63.

LCVKVFRRFYRHVHIVHVSQ gave an amyloid nucleation score of -0.337 ± 0.4.

Take RSKVYTWR: the amyloid nucleation score was found to be 3.23 ± 0.071.

In turn, ASLALYRITRVGICYIRRLR registered an amyloid nucleation score of -0.839 ± 0.78.

Take FLFSFKDPKHMDITCKAVYA: the amyloid nucleation score is -0.433 ± 0.78.

In the case of MGAAITSGEGYDLRLLIDNS, the amyloid nucleation score worked out at 0.208 ± 1.1.

As to FTFLRRLMFTGFRLAIQNPS, the amyloid nucleation score result was “inactive”.

The substance HEYLRGRGTFGNIQDYNKLM came in with an amyloid nucleation score of -0.447 ± 1.1.

On to DKSAVMVFNRRYVPWFGIRY, for which the amyloid nucleation score result is “inactive”.

RVRGGEYRRSYTKWWEGCGS gave an amyloid nucleation score of 3.19 ± 0.091.

Consider VENRMVVLRSSIAIWVSRTV, for which the amyloid nucleation score was 0.955 ± 0.34.

TSLDRRICKRGTVIVEIPHA gave an amyloid nucleation score of 5.28 ± 0.055.

In turn, WDIRVVVSVRCNMQVYLFVC came in with an amyloid nucleation score of 0.581 ± 0.51.

PFVGSSGTWP gave an amyloid nucleation score of 1.5 ± 0.12.

The substance AINGHDRGLSKLGGRAGESD had an amyloid nucleation score of 0.589 ± 0.42.

The substance GRRHVNFCSRTDYRAGPHRY showed an amyloid nucleation score of 0.112 ± 1.1.

Consider FYMYFPNRAYWVGLGLTPML, for which the amyloid nucleation score is -0.365 ± 0.61.

Consider TTMCMGLLTNWWAGRCL, for which the amyloid nucleation score came out at 2.76 ± 0.1.

PLNGIRFWSDVNLSRDGSSM returned an amyloid nucleation score of -0.025 ± 1.1.

As for RFYCRRT, the amyloid nucleation score was found to be 0.199 ± 0.33.

The substance LWVARHIRIEFMLTFRIYKA returned an amyloid nucleation score of 0.011 ± 1.1.

Substance KGGEVEGLSLR displayed an amyloid nucleation score of -0.889 ± 0.63.

For LYWFMD, the amyloid nucleation score is -1.16 ± 1.1.

With MGRLNVYLNVRLISKVIGIQ, the amyloid nucleation score came out at 3.63 ± 0.053.

As for NSNSCAHLTKTRYKSTVRYT, the amyloid nucleation score amounted to 2.1 ± 0.23.

For the substance ILMMNLNAADRIVNMHMSIL, the amyloid nucleation score entry is “inactive”.

In turn, KEEVRSLFIGTFPKIFFGLH displayed an amyloid nucleation score of 0.251 ± 0.46.

For the substance SYYFLLLFVQT, the amyloid nucleation score was -0.017 ± 0.76.

In the case of VHRSSLASNGSLES, the amyloid nucleation score is -0.398 ± 0.45.

As for RHPMSKKTSYKWYVVLTQCR, the amyloid nucleation score was found to be 0.554 ± 0.31.

For FDGTIYCPSWILWETPGVNK, the amyloid nucleation score entry is “inactive”.

PLYLYA displayed an amyloid nucleation score of 4.28 ± 0.078.

Regarding VEARVHFPFWDLIEVSMYGY, the amyloid nucleation score is -0.665 ± 0.49.

DRGTGNRGSCDRSYLDSGKV showed an amyloid nucleation score of 0.963 ± 0.29.

FCLDLWCKGFLYYTQCVNGW displayed an amyloid nucleation score of 4.08 ± 0.063.

In turn, RQSKARLYCR returned an amyloid nucleation score of 0.397 ± 0.3.

TYSSNASGVTVFR showed an amyloid nucleation score of -0.772 ± 0.63.

Consider RNFCGTRARSISYWAESERW, for which the amyloid nucleation score is -0.089 ± 1.1.

On to YVTPSNLARNKIQRFMASLI, for which the amyloid nucleation score was 0.436 ± 0.8.

For the substance SPTRFFQLFQADGNSNRGDV, the amyloid nucleation score is -0.519 ± 1.

For SLCREVPFLWDFCL, the amyloid nucleation score is 0.163 ± 0.63.

With IFSKVRLFFRRGMNFVMGEV, the amyloid nucleation score is -1.64 ± 0.77.

As for LWSVYYMSVIIFPFGKHPKQ, the amyloid nucleation score came out at 7.149 ± 0.056.

For the substance MYNENRLLSSFNSVCCMLWG, the amyloid nucleation score worked out at 9.787 ± 0.078.

TSWNWSFFWCTYYLFTQVRG gave an amyloid nucleation score of -0.772 ± 0.42.

In the case of RVERLWVLHSKATQRRM, the amyloid nucleation score was 0.063 ± 0.79.

Take VCTLRVSDNNLEKKSVLYMR: the amyloid nucleation score was determined as 3.97 ± 0.047.

As for ICCWEMCLGSFFR, the amyloid nucleation score turned out to be 0.287 ± 0.65.

For SVICELLQDRFTSLHGMYGY, the amyloid nucleation score came to 0.119 ± 0.31.

As for VFSFRGLFGFIPMVPYWYAI, the amyloid nucleation score result is “inactive”.

The substance VFLYNIGFK returned an amyloid nucleation score of 0.691 ± 0.38.

Substance SLKPSLLSDKNE had an amyloid nucleation score of -1.39 ± 0.36.

Consider GGNFYGGEYDMGGGSIRHYG, for which the amyloid nucleation score entry was “inactive”.

HKDSKTGSIYHQWMDQREIE: the amyloid nucleation score was -1.1 ± 0.48.

On to GFSVSARVMIDLPYVEVRFS, for which the amyloid nucleation score came to 0.07 ± 0.74.

In turn, WHQLKSTPLHFYSINTASFN returned an amyloid nucleation score of 0.123 ± 0.6.

Take LTSKAVAYNDLACFMLS: the amyloid nucleation score is 0.613 ± 0.74.

NCWISIYNMFLLRRRMMGMG returned an amyloid nucleation score of -0.611 ± 0.63.

On to WFLCWYSTPTLGCCKKEGSA, for which the amyloid nucleation score turned out to be 0.056 ± 0.33.

As for FLSARHGRGFARGFSPP, the amyloid nucleation score entry is “inactive”.

SSVSRLR displayed an amyloid nucleation score of -0.277 ± 0.74.

LTPIMAEKVLPYICQLLRGS gave an amyloid nucleation score of -0.228 ± 0.55.

Consider LIDLKGQRSHGVTKGLTDFP, for which the amyloid nucleation score was -0.406 ± 0.36.

Turning to NLHEMLIGHGRQVRR, the amyloid nucleation score stood at 1.42 ± 0.36.

Consider QHRFFQYYRS, for which the amyloid nucleation score is -1.5 ± 0.64.

Consider VSMSRGL, for which the amyloid nucleation score entry is “inactive”.

Regarding ANKLLESCFSQCLRSALFEW, the amyloid nucleation score was -0.369 ± 0.79.

Turning to LGLMLIDLIWLRRYIYSWVR, the amyloid nucleation score came out at 0.338 ± 0.34.

In the case of DVFYRSVPMQVGWQVMWACD, the amyloid nucleation score worked out at 0.703 ± 0.15.

FGFKCSAVITICPGPSRLGS displayed an amyloid nucleation score of 5.12 ± 0.081.

Substance RSSCRRNSYLRQLVMSLVRY gave an amyloid nucleation score of -0.105 ± 1.1.

VYSLFSYLRDTLVV came in with an amyloid nucleation score of -0.534 ± 0.74.

Substance PISLRGLYCVKDLMDKPM gave an amyloid nucleation score of 0.113 ± 0.61.
